Measurements: patent US7998940B2, “Aptamers to von Willebrand factor and their use as thrombotic disease therapeutics” (Archemix Corp., priority 2004, dated 2011)
Numbering of substitutions follows the chain as printed. Oligonucleotides are written 5' to 3', each unit as a sugar letter and its base; * is a phosphorothioate linkage, no mark a phosphodiester; rarer units and linkages stand in square brackets, end groups in braces. Plain capitals give the bases only. d = 2'-deoxy (DNA); r = 2'-OH (RNA)

B1: AMX199.F10: DNA SELEX 1 aptamer clone (nucleic acid)
DNA: CTACCTACGATCTGACTAGCGAAACACTAGGTTGGTTAGGATTGGTGTGTTTCCGTTCTGCTTACTCTCATGTAGTTCC
modifications: DNA, backbone not given here
notes: DNA SELEX 1 aptamer clone
B2: AMX199.A10: DNA SELEX 1 aptamer clone (nucleic acid)
DNA: B1 DNA with A22G, T52C, C58T
modifications: DNA, backbone not given here
notes: DNA SELEX 1 aptamer clone
B3: AMX199.F11: DNA SELEX 1 aptamer clone (nucleic acid)
DNA: B1 DNA with C54T, T56C
modifications: DNA, backbone not given here
notes: DNA SELEX 1 aptamer clone
B4: AMX199.G5: DNA SELEX 1 aptamer clone (nucleic acid)
DNA: B1 DNA with T52C, T56C, T57C
modifications: DNA, backbone not given here
notes: DNA SELEX 1 aptamer clone
B5: AMX199.F1: DNA SELEX 1 aptamer clone (nucleic acid)
DNA: B1 DNA with T52C, T56C, C58A
modifications: DNA, backbone not given here
notes: DNA SELEX 1 aptamer clone
B6: AMX199.H7: DNA SELEX 1 aptamer clone (nucleic acid)
DNA: B1 DNA with T56C, C58T
modifications: DNA, backbone not given here
notes: DNA SELEX 1 aptamer clone
B7: AMX199.G1: DNA SELEX 1 aptamer clone (nucleic acid)
DNA: B1 DNA with T52C, T56C, C58T
modifications: DNA, backbone not given here
notes: DNA SELEX 1 aptamer clone
B8: AMX199.F6: DNA SELEX 1 aptamer clone (nucleic acid)
DNA: B1 DNA with T52C, T56C
modifications: DNA, backbone not given here
notes: DNA SELEX 1 aptamer clone
B9: AMX199.G4: DNA SELEX 1 aptamer clone (nucleic acid)
DNA: B1 DNA with T52C, T56C, C58A
modifications: DNA, backbone not given here
notes: DNA SELEX 1 aptamer clone
B10: AMX200.G11: DNA SELEX 1 aptamer clone (nucleic acid)
DNA: CTACCTACGATCTGACTAGCGGAACGAGAATGCTGATGGATTGCTCAGGTCTGCTGGCTGCTTACTCTCATGTAGTTCC
modifications: DNA, backbone not given here
notes: DNA SELEX 1 aptamer clone
B11: AMX200.E8: DNA SELEX 1 aptamer clone (nucleic acid)
DNA: B10 DNA with C25T, A29G, A36G, C54T
modifications: DNA, backbone not given here
notes: DNA SELEX 1 aptamer clone
B12: AMX200.D1: DNA SELEX 1 aptamer clone (nucleic acid)
DNA: B10 DNA with C25T, A30G, G53A
modifications: DNA, backbone not given here
notes: DNA SELEX 1 aptamer clone
B13: AMX200.B1: DNA SELEX 1 aptamer clone (nucleic acid)
DNA: B10 DNA with C25T, T45C
modifications: DNA, backbone not given here
notes: DNA SELEX 1 aptamer clone
B14: AMX200.D8: DNA SELEX 1 aptamer clone (nucleic acid)
DNA: B10 DNA with C25T, C33T
modifications: DNA, backbone not given here
notes: DNA SELEX 1 aptamer clone
B15: AMX200.F9: DNA SELEX 1 aptamer clone (nucleic acid)
DNA: B10 DNA with C25T, A29G, C44G
modifications: DNA, backbone not given here
notes: DNA SELEX 1 aptamer clone
B16: AMX200.D11: DNA SELEX 1 aptamer clone (nucleic acid)
DNA: B10 DNA with C25T, G26A
modifications: DNA, backbone not given here
notes: DNA SELEX 1 aptamer clone
B17: AMX200.A7: DNA SELEX 1 aptamer clone (nucleic acid)
DNA: B10 DNA with C25T, C44T
modifications: DNA, backbone not given here
notes: DNA SELEX 1 aptamer clone
B18: AMX200.B8: DNA SELEX 1 aptamer clone (nucleic acid)
DNA: B10 DNA with C25T, C33T, A36G
modifications: DNA, backbone not given here
notes: DNA SELEX 1 aptamer clone
B19: AMX200.B9: DNA SELEX 1 aptamer clone (nucleic acid)
DNA: B10 DNA with C25T, G57A
modifications: DNA, backbone not given here
notes: DNA SELEX 1 aptamer clone
B20: AMX200.A11: DNA SELEX 1 aptamer clone (nucleic acid)
DNA: CTACCTACGATCTGACTAGCTGAGTAGTTAGTAACTTTTTATTATGGTTTGGTGGGTCTGGCTTACTCTCATGTAGTTCC
modifications: DNA, backbone not given here
notes: DNA SELEX 1 aptamer clone
B21: AMX200.H8: DNA SELEX 1 aptamer clone (nucleic acid)
DNA: B20 DNA with T29C, C35T, T57C
modifications: DNA, backbone not given here
notes: DNA SELEX 1 aptamer clone
B22: AMX199.F8: DNA SELEX 1 aptamer clone (nucleic acid)
DNA: CTACCTACGATCTGACTAGCAAGGGGATTGGCTCCGGGTCTGGCGTGCTTGGCACCTCTGGCTTACTCTCATGTAGTTCC
modifications: DNA, backbone not given here
notes: DNA SELEX 1 aptamer clone
B23: AMX199.B6: DNA SELEX 1 aptamer clone (nucleic acid)
DNA: B22 DNA with C53T, T59C
modifications: DNA, backbone not given here
notes: DNA SELEX 1 aptamer clone
B24: AMX205.G9: rRdY aptamer clone (nucleic acid)
chain: rGrGrArGdCrGdCrAdCdTdCrArGdCdCrAdCrArAdCdTrGrGdTdTrGdTdCrGrGdTrGrAdTrGrGdCrAdTdTrArAdCrGdCrGrGrAdCdCrArGrGdCrAdTrGdTdTdTdCrGrAdCdCdTdCdTdCdTrGdCdTrArGdC
B25: AMX203.A6: rRdY aptamer clone (nucleic acid)
chain: rGrGrArGdCrGdCrAdCdTdCrArGdCdCrAdCdCrAdCrGrGrGrGrAdCrGrGrGdTrArGrGrGdCrGrGrGdCrGrArGrGdTrGrGdTrGrGdCrAdTdTrArGdCrGdTdTdTdCrGrAdCdCdTdCdTdCdTrGdCdTrArGdC
B26: AMX203.F9: rRdY aptamer clone (nucleic acid)
chain: rGrGrArGdCrGdCrAdCdTdCrArGdCdCrAdCdTrGrArArGrGrGdTrArArGrGrAdCrGrArGrGrArGrGrGdTrAdTrAdCrArGdTrGdTrGdCrGdCrGdTrGdTrAdTdTdTdCrGrAdCdCdTdCdTdCdTrGdCdTrArGdC
B27: AMX205.A7: rRdY aptamer clone (nucleic acid)
chain: rGrGrArGdCrGdCrAdCdTdCrArGdCdCrAdCdTdCrArArGrGrGrGrGdTdCrGdCrGdTrGrGrGrGrAdCrGrArArGrGrGdTdTrGdCrArGdTrGdTrGdTdCrGdTdTdTdCrGrAdCdCdTdCdTdCdTrGdCdTrArGdC

What follows are molecules tested against human vWF A1 domain (SEQ ID NO 5) (Homo sapiens, UniProt P04275, T1381A) (assay: 3-point dot blot screen, human vWF A1 domain). Details: DNA SELEX 1 aptamers; 100 nM human vWF A1 domain; ratio of fraction bound with target to without.
Assay type: binding
Source text: (§1) When a significant positive ratio of binding of RNA in the presence of human or rabbit vWF A1 domain versus in the absence of protein was seen, the pools were cloned using the TOPO TA cloning kit (Invitrogen, Cat. #45-0641, Carlsbad, Calif.) according to the manufacturer's instructions. Round 9 and 12 pool templates were cloned and sequenced (125 total sequences), producing 48 unique clones. All unique clones were transcribed, desalted, 5-^32P end-labeled, and assayed in a 3-point dot blot screen (no protein target control, 100 nM human vWF A1 domain (SEQ ID NO 5, FIG. 3), or 100 nM rabbit vWF A1 domain (SEQ ID NO 6, FIG. 3). The data is presented in the third and fourth columns of Table 4 below as the ratio of the fraction of the aptamer bound to the nitrocellulose in the presence of the target protein to the fraction of aptamer bound in the absence of the target protein.
(§2) When a significant positive ratio of binding of RNA in the presence of human or rabbit vWF A1 domain (SEQ ID NOS 4 and 6, respectively) versus in the absence of protein was seen, the pools were cloned using the TOPO TA cloning kit (Invitrogen Cat. #45-0641, Carlsbad, Calif.) according to the manufacturer's instructions. Round 9 and 12 pool templates were cloned and sequenced (185 total sequences), producing 78 unique clones within 3 sequence families. All unique clones were transcribed, desalted, 5-^32P end-labeled, and assayed in a 3-point dot blot screen (no protein target control, 100 nM human vWF A1 domain (SEQ ID NO 5), or 100 nM rabbit vWF A1 domain (SEQ ID NO 6). The data are presented in the third and fourth columns of Table 9 below as the ratio of the fraction of the aptamer bound to the nitrocellulose in the presence of the target protein to the fraction of aptamer bound in the absence of the target protein. Of the three sequence families, members of Family #1 and #2 and two individual, non-family aptamers, bound to both human vWF domain A1 (SEQ ID NO 5) and rabbit vWF domain A1 (SEQ ID NO 6).
(§3) All unique clones were assayed in a 3-point dot blot screen (no protein target control, 100 nM human vWF A1 domain (SEQ ID NO 5), or 100 nM rabbit vWF A1 domain (SEQ ID NO 6). The data are presented in the third and fourth columns of Table 14 below as the ratio of the fraction of the aptamer bound to the nitrocellulose in the presence of the target protein to the fraction of aptamer bound in the absence of the target protein.

Sequence of human vWF A1 domain (SEQ ID NO 5) (P04275 with tags, fused parts or gaps T1381A): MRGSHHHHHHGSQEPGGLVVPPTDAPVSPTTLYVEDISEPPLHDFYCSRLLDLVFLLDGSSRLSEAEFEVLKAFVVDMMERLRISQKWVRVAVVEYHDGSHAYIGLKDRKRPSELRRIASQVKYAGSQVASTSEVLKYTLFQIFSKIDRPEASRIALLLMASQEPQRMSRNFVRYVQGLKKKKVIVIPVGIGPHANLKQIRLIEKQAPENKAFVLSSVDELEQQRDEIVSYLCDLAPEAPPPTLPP

Molecule	Screen- Human/No Protein
B1	1.17
B2	1.25
B3	1.44
B4	1.41
B5	1.32
B6	1.32
B7	1.19
B8	1.37
B9	1.19
B10	1.73
B11	1.04
B12	1.26
B13	4.01
B14	2.86
B15	0.97
B16	3.34
B17	0.97
B18	4.13
B19	2.54
B20	1.49
B21	1.86
B22	1.78
B23	2.01

Same assay, conditions: rRdY aptamers; 100 nM human vWF A1 domain; ratio of fraction bound with target to without

Molecule	Screen- Human/No Protein
B24	1.30
B25	1.16
B26	1.45
B27	1.24

What follows are molecules tested on rabbit vWF A1 domain (SEQ ID NO 6) (assay: 3-point dot blot screen, rabbit vWF A1 domain). Details: DNA SELEX 1 aptamers; 100 nM rabbit vWF A1 domain; ratio of fraction bound with target to without.
Assay type: binding
Source text: as §1, §2, §3
When a significant positive ratio of binding of DNA in the presence of human or rabbit vWF A1 domain versus in the absence of protein was seen, the pools were cloned using the TOPO TA cloning kit (Invitrogen Cat. #45-0641, Carlsbad, Calif.) according to the manufacturer's instructions. Round 7 and 11 pool templates were cloned and sequenced (218 total sequences), producing 146 unique clones within 12 sequence families of which sequences from six families show vWF target binding activity. All unique clones were assayed twice in a 3-point dot blot screen (no protein target control, 20 nM full length human vWF (Calbiochem Cat. #681300, La Jolla, Calif.), or 20 nM rabbit vWF A1 domain. The data is presented in the third and fourth columns of Table 17 below as the ratio of the fraction of the aptamer bound to the nitrocellulose in the presence of the target protein to the fraction of aptamer bound in the absence of the target protein.

Sequence of rabbit vWF A1 domain (SEQ ID NO 6) (as listed by the source): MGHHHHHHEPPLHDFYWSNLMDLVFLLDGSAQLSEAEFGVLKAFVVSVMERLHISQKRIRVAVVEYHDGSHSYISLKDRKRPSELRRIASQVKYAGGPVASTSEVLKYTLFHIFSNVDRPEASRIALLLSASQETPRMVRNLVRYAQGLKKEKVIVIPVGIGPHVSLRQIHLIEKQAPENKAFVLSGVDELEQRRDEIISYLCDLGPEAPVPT

Molecule	Screen- Rabbit/No Protein
B1	1.24
B2	1.29
B3	1.35
B4	1.34
B5	1.36
B6	1.14
B7	1.26
B8	1.30
B9	1.11
B10	1.28
B11	1.03
B12	1.06
B13	3.01
B14	1.61
B15	0.99
B16	2.04
B17	0.96
B18	3.13
B19	2.06
B20	1.19
B21	1.27
B22	1.79
B23	1.91

Same assay, conditions: rRdY aptamers; 100 nM rabbit vWF A1 domain; ratio of fraction bound with target to without

Molecule	Screen- Rabbit/No Protein
B24	1.73
B25	1.16
B26	1.29
B27	1.37
